In publication PMC6821933, “IMP-68, a Novel IMP-Type Metallo-β-Lactamase in Imipenem-Susceptible Klebsiella pneumoniae” (mSphere, 2019) one finds Km, kcat and kcat/Km data, which are given here for six compounds.

Data set [1] has as its system T1, IMP-11.
T1 construct: gene blaIMP-11; signal peptide (first 19 aa) removed; His tag cut off with PreScission protease; expressed in E. coli Rosetta II
Nature of the data set: spectrophotometric initial hydrolysis rates, […] nm, Michaelis-Menten. It is filed as biochemical. The note with it: 50 mM sodium phosphate pH 7.0, 50 μM ZnCl2, 24 ± 1 °C.

Data set [2] relates to T1, IMP-11. Described as above. It counts as biochemical. The conditions noted are these: 50 mM sodium phosphate pH 7.0, 50 μM ZnCl2, 24 ± 1 °C. This is another data set of the same source.
For data set [3], the system named is T1, IMP-11. The description is as above. It counts as biochemical. The note with it: 50 mM sodium phosphate pH 7.0, 50 μM ZnCl2, 24 ± 1 °C. This is another data set of the same source.
Data set [4] concerns C[C@@H](O)[C@H]1C(=O)N2C(C(=O)O)=C(SCCN=CN)C[C@H]12. Nature of the data set: purified protein. It counts as biochemical, Klebsiella pneumoniae. The conditions noted are these: 50 mM sodium phosphate pH 7.0, 50 μM ZnCl2, 24 ± 1 °C, 24.0 °C.
The test system of data set [5] is CO/N=C(\C(=O)N[C@@H]1C(=O)N2C(C(=O)O)=C(COC(C)=O)CS[C@H]12)c1csc(N)n1. Nature of the data set: purified protein. It counts as biochemical, Klebsiella pneumoniae. The conditions noted are these: 50 mM sodium phosphate pH 7.0, 50 μM ZnCl2, 24 ± 1 °C, 24.0 °C.
For data set [6], the system named is CC(C)(O/N=C(\C(=O)N[C@@H]1C(=O)N2C(C(=O)[O-])=C(C[n+]3ccccc3)CS[C@H]12)c1csc(N)n1)C(=O)O. Nature of the data set: purified protein. It counts as biochemical, Klebsiella pneumoniae. The conditions noted are these: 50 mM sodium phosphate pH 7.0, 50 μM ZnCl2, 24 ± 1 °C, 24.0 °C.
In data set [7] the test system is CC1(C)S[C@@H]2[C@H](NC(=O)[C@H](N)c3ccccc3)C(=O)N2[C@H]1C(=O)O. Nature of the data set: purified protein. It counts as biochemical, Klebsiella pneumoniae. The conditions noted are these: 50 mM sodium phosphate pH 7.0, 50 μM ZnCl2, 24 ± 1 °C, 24.0 °C.
The test system of data set [8] is C[C@@H](O)[C@H]1C(=O)N2C(C(=O)O)=C(S[C@@H]3CN[C@H](C(=O)N(C)C)C3)[C@H](C)[C@H]12. Description: purified protein. It counts as biochemical, Klebsiella pneumoniae. The conditions noted are these: 50 mM sodium phosphate pH 7.0, 50 μM ZnCl2, 24 ± 1 °C, 24.0 °C.

As a reminder, the Km is the substrate concentration at which the rate is half of its maximum. Take `CC1(C)S[C@@H]2[C@H](NC(=O)[C@H](N)c3ccccc3)C(=O)N2[C@H]1C(=O)O` [Ampicillin]: the Michaelis-Menten constant (Km) in the data set with IMP-11 [1] came to 830 ± 248 µM.
Turning to `CO/N=C(\C(=O)N[C@@H]1C(=O)N2C(C(=O)O)=C(COC(C)=O)CS[C@H]12)c1csc(N)n1` [Cefotaxime], the Michaelis constant (Km) in the data set with IMP-11 [2] worked out at 11.8 ± 2.2 µM.
With `CC(C)(O/N=C(\C(=O)N[C@@H]1C(=O)N2C(C(=O)[O-])=C(C[n+]3ccccc3)CS[C@H]12)c1csc(N)n1)C(=O)O` [Ceftazidime], in the data set with IMP-11 [2], the Km is 232 ± 18.9 µM.
Turning to `C[C@@H](O)[C@H]1C(=O)N2C(C(=O)O)=C(SCCN=CN)C[C@H]12` [Imipenem], the Km in the data set on IMP-11 [3] is 41 ± 18.4 µM.
Regarding `C[C@@H](O)[C@H]1C(=O)N2C(C(=O)O)=C(S[C@@H]3CN[C@H](C(=O)N(C)C)C3)[C@H](C)[C@H]12` [Meropenem], the Km in the data set on IMP-11 [3] was 14.8 ± 2.8 µM.
By kcat is commonly meant the maximal rate divided by the concentration of active sites. As usually defined, the kcat/Km is the second-order rate constant that governs catalysis at low substrate concentration. As to IMP-68 (Klebsiella pneumoniae), the Km in data set [4] turned out to be 347 ± 52.2 µM; in data set [5] it was 10.3 ± 2.3 µM; in data set [6], 326 ± 131 µM; in data set [7], 465 ± 200 µM; in data set [8], 10.1 ± 0.94 µM. Besides, the turnover number (kcat) in data set [4] came to 36.7 ± 7.8 s⁻¹; in data set [5], 25.7 ± 1.3 s⁻¹; in data set [6] it was 3.9 ± 2.1 s⁻¹; in data set [7], 1.7 ± 0.44 s⁻¹; in data set [8] it was 9.7 ± 1.7 s⁻¹. For the same compound, the kcat/Km in data set [4] came to 110000 M⁻¹ s⁻¹; in data set [5], 2.5e+06 M⁻¹ s⁻¹; in data set [6] it was 12000 M⁻¹ s⁻¹; in data set [7], 3700 M⁻¹ s⁻¹; in data set [8] it was 890000 M⁻¹ s⁻¹.
